# Experimental data: paper PMC3476531, “Synergy of Peptide and Sugar in O-GlcNAcase Substrate Recognition” (Chemistry & Biology, 2012)
# Where a chain is given by its changes, count along the chain named. *: point of attachment. βGlcNAc = CC(=O)N[C@@H]1[C@@H](O)[C@H](O)[C@@H](CO)O[C@H]1*
# T1: human O-GlcNAcase (hOGA) Y69Q (human) (UniProt O60502)
# T1 sequence: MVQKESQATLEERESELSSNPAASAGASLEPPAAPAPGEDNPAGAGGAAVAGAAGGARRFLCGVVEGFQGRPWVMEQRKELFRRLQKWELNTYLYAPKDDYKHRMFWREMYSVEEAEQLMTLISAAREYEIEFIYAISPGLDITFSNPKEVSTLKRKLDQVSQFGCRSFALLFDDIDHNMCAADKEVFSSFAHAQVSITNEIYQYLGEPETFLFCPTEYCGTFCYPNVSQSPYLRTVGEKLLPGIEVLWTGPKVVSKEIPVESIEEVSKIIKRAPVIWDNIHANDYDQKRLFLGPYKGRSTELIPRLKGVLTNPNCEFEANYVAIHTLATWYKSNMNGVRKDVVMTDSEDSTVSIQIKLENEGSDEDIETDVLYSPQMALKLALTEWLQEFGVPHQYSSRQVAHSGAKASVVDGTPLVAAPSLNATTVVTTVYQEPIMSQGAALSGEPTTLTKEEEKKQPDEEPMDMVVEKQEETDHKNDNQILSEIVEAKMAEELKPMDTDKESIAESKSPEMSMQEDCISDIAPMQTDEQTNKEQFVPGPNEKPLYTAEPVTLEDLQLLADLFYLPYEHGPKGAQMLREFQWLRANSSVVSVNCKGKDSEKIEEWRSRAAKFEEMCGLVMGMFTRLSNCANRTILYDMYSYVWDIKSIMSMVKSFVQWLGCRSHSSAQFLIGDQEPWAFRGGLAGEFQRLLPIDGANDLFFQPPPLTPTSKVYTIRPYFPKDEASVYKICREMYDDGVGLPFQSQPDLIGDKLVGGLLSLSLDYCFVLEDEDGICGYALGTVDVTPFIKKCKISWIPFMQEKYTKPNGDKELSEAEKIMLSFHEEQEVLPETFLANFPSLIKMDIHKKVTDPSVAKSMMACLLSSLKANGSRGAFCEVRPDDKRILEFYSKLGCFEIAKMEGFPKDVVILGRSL
# T2: human O-GlcNAcase (hOGA) Y69S (human) (UniProt O60502)
# T2 sequence: T1 sequence with Q69S
# B1: TAB1 peptide PVSVPYS(O-GlcNAc)SAQSTS (peptide)
# peptide: Ac-PVSVPYS(βGlcNAc)SAQSTS-NH2
# SMILES: CC(=O)N[C@H]1[C@H](OC[C@H](NC(=O)[C@H](Cc2ccc(O)cc2)NC(=O)[C@@H]2CCCN2C(=O)[C@@H](NC(=O)[C@H](CO)NC(=O)[C@@H](NC(=O)[C@@H]2CCCN2C(C)=O)C(C)C)C(C)C)C(=O)N[C@@H](CO)C(=O)N[C@@H](C)C(=O)N[C@@H](CCC(N)=O)C(=O)N[C@@H](CO)C(=O)N[C@H](C(=O)N[C@@H](CO)C(N)=O)[C@@H](C)O)O[C@H](CO)[C@@H](O)[C@@H]1O
# Legend:
# [1] = molecular target: T1, human O-GlcNAcase (hOGA) Y69Q (human)
# [2] = molecular target: T2, human O-GlcNAcase (hOGA) Y69S (human)
binder,measurement,setting,value
B1,KM of the glycopeptide substrate (substrate competition assay with 4MU-GlcNAc as reporter substrate),[1],3.6 mM
same,KM of the glycopeptide substrate (substrate competition assay with 4MU-GlcNAc as reporter substrate),[2],> 4 mM
